For orientation: stoichiometry N means a count of units in the complex or per binding partner.

The values below come from publication PMC3971453, “Crystallographic structure of the turbine C-ring from spinach chloroplast F-ATP synthase” (Bioscience Reports, 2014).

This data set concerns the molecule itself. Description: crystal structure; crystals grown from the entire CF1FO-ATP synthase (18 mg/ml), vapour diffusion, 33% (v/v) PEG 550 MME, 0.05 M sodium acetate pH 4.3; only the c-ring in the crystal; molecular replacement with PDB 2W5J; refined to 6.0 Å.

B1: subunit c of the CF1FO-ATP synthase from spinach chloroplasts (natural protein, spinach (Spinacea oleracea L.), UniProt P69447 1-81, looked up)
chain: MNPLIAAASVIAAGLAVGLASIGPGVGQGTAAGQAVEGIARQPEAEGKIRGTLLLSLAFMEALTIYGLVVALALLFANPFV
notes: ATP synthase subunit c (subunit III), chloroplastic, Spinacia oleracea; native protein from the tissue; the last four C-terminal amino acids are not visible in the electron density map; Native, untagged protein; Homo-oligomeric ring of 14 copies; also called subunit III; c-ring; source: the c-ring alone was left in the crystal; copies: 14
As to B1, the “stoichiometry N” value came to 14.
